Assay results from IntAct's records for PubMed 22902367.

B1: Nectin-1 (Homo sapiens), Q15223 (parent)
chain: MARMGLAGAAGRWWGLALGLTAFFLPGVHSQVVQVNDSMYGFIGTDVVLHCSFANPLPSVKITQVTWQKSTNGSKQNVAIYNPSMGVSVLAPYRERVEFLRPSFTDGTIRLSRLELEDEGVYICEFATFPTGNRESQLNLTVMAKPTNWIEGTQAVLRAKKGQDDKVLVATCTSANGKPPSVVSWETRLKGEAEYQEIRNPNGTVTVISRYRLVPSREAHQQSLACIVNYHMDRFKESLTLNVQYEPEVTIEGFDGNWYLQRMDVKLTCKADANPPATEYHWTTLNGSLPKGVEAQNRTLFFKGPINYSLAGTYICEATNPIGTRSGQVEVNITEFPYTPSPPEHGRRAGPVPTAIIGGVAGSILLVLIVVGGIVVALRRRRHTFKGDYSTKKHVYGNGYSKAGIPQHHPPMAQNLQYPDDSDDEKKAGPLGGSSYEEEEEEEEGGGGGERKVGGPHPKYDEDAKRPYFTVDEAEARQDGYGDRTLGYQYDPEQLDLAENMVSQNDGSFISKKEWYV

Variants of: B1
Details: with NECTIN3, Q9NQS3-1
Sequence of NECTIN3, Q9NQS3-1 (Q9NQS3 whole entry, looked up): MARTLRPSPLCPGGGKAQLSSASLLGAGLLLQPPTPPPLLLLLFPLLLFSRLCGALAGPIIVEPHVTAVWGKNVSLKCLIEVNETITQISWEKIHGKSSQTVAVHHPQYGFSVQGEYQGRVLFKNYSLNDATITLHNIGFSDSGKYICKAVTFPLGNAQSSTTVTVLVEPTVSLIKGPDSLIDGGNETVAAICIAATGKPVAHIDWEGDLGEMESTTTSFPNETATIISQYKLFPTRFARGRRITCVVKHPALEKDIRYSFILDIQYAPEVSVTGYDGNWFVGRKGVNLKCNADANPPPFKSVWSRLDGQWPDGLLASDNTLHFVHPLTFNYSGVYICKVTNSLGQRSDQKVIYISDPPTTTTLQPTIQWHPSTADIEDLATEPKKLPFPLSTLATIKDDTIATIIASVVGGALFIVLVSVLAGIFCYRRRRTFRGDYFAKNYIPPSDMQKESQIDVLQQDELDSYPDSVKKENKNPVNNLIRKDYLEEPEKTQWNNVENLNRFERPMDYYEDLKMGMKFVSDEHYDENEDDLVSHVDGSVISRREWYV

Variant	effect of a mutation on the interaction
MARMGLAGAAGRWWGLALGLTAFFLPGVHSQVVQVNDSMYGFIGTDVVLHCSFANPLPSVKITQVTWQKSTNGSKQNVAIYNPSMGVSVLAPYRERVEFLRPSFTDGTIRLSRLELEDEGVYICEFATDPTGNRESQLNLTVMAKPTNWIEGTQAVLRAKKGQDDKVLVATCTSANGKPPSVVSWETRLKGEAEYQEIRNPNGTVTVISRYRLVPSREAHQQSLACIVNYHMDRFKESLTLNVQYEPEVTIEGFDGNWYLQRMDVKLTCKADANPPATEYHWTTLNGSLPKGVEAQNRTLFFKGPINYSLAGTYICEATNPIGTRSGQVEVNITEFPYTPSPPEHGRRAGPVPTAIIGGVAGSILLVLIVVGGIVVALRRRRHTFKGDYSTKKHVYGNGYSKAGIPQHHPPMAQNLQYPDDSDDEKKAGPLGGSSYEEEEEEEEGGGGGERKVGGPHPKYDEDAKRPYFTVDEAEARQDGYGDRTLGYQYDPEQLDLAENMVSQNDGSFISKKEWYV [F129D]	disrupting interaction strength

Variants of: B1
Details: with nect4_human NECTIN4, Q96NY8
Sequence of nect4_human NECTIN4, Q96NY8 (Q96NY8 whole entry): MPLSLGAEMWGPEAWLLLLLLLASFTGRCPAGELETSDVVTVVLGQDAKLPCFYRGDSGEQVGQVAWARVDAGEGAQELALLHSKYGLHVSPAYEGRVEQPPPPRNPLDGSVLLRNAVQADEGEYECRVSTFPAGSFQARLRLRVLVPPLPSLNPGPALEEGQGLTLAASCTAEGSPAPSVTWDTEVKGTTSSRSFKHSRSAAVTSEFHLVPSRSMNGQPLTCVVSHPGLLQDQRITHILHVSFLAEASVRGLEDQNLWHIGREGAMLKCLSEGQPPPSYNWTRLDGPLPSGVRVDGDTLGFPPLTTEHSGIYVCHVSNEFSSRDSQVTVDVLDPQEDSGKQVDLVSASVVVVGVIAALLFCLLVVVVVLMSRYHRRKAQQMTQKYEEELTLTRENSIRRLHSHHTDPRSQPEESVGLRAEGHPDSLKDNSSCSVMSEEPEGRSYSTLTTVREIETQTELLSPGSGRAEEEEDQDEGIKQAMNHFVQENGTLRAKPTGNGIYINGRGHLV

Variant	effect of a mutation on the interaction
MARMGLAGAAGRWWGLALGLTAFFLPGVHSQVVQVNDSMYGFIGTDVVLHCSFANPLPSVKITQVTWQKSTNGSKQNVAIYNPSMGVSVLAPYRERVEFLRPSFTDGTIRLSRLELEDEGVYICEFATDPTGNRESQLNLTVMAKPTNWIEGTQAVLRAKKGQDDKVLVATCTSANGKPPSVVSWETRLKGEAEYQEIRNPNGTVTVISRYRLVPSREAHQQSLACIVNYHMDRFKESLTLNVQYEPEVTIEGFDGNWYLQRMDVKLTCKADANPPATEYHWTTLNGSLPKGVEAQNRTLFFKGPINYSLAGTYICEATNPIGTRSGQVEVNITEFPYTPSPPEHGRRAGPVPTAIIGGVAGSILLVLIVVGGIVVALRRRRHTFKGDYSTKKHVYGNGYSKAGIPQHHPPMAQNLQYPDDSDDEKKAGPLGGSSYEEEEEEEEGGGGGERKVGGPHPKYDEDAKRPYFTVDEAEARQDGYGDRTLGYQYDPEQLDLAENMVSQNDGSFISKKEWYV [F129D]	disrupting interaction strength
